Experimental findings from patent publication US20250136687A1 (SHANDONG SIMCERE BIOPHARMACEUTICAL, published 2025) are described below.

Assay [1] has as its target T1, cynomolgus monkey CD3 on the surface of expanded monkey T cells (cynomolgus monkey, UniProt Q95LI5 22-198; Q95LI8 22-171; Q95LI7 23-181).
T1 construct: whole, on cells; Endogenous CD3 within the TCR-CD3 complex on T cells expanded from cynomolgus monkey PBMC
Briefly: FACS, expanded monkey T cells, 4 nM antibody. The procedure: (§1) The binding of the chimeric antibodies to CD3 on the cell surface was analyzed by detecting the binding of the antibodies to Jurkat cells and human T cells. Suspension cells Jurkat cells were scale-up cultured in T-75 cell culture flasks to the logarithmic growth phase, the supernatant of the medium was discarded by centrifugation, and the cell pellet was washed 2 times with PBS for later use. The expanded human T cells were washed 2 times with PBS for later use. After counting the cells in the previous step, the cell pellet was resuspended with [PBS+2% (w/w) BSA] blocking solution to 4×10⁶ cells/ml, and added to a 96-well FACS reaction plate at 50 μl/well, and then the chimeric antibody to be tested was added at 50 μl/well, and incubated at 4° C. for 1 h. The cells were centrifuged and washed 3 times with a PBS buffer. […] The cells were centrifuged and washed 5 times with PBS, and FACS (FACS Canto™, purchased from BD Company) was used for detection and result analysis. Data analysis was performed by software (CellQuest) to obtain the mean fluorescence […] (MFI) of the cells. And then software (GraphPad Prism8) was used for analysis, data fitting, and EC50 value calculation. The same method was used to simultaneously detect the binding of the chimeric antibodies to endogenous CD3 negative cells MOLT4 cells.
FACS detection and data analysis were performed on the cryopreserved monkey T cells of Example 2.4 according to the method in Example 5.1.

Assay [2] has as its target T2, human CD3 on the cell surface (Jurkat cells, expanded human T cells, Jurkat-Lucia NFAT cells, human PBMC) (human, UniProt P07766 23-207; P04234 22-171; P09693 23-182). Briefly: cell-based or functional assay.
Assay [3] concerns the target T3, recombinant human CD3ε-ECD His protein (human, UniProt P07766 23-126).
T3 construct: extracellular domain; also called human CD3ε-His; CD3ε antigen protein; not shown: His tag
Put plainly: SPR (Biacore), antibody captured on Protein A chip. The procedure:
Sample buffer and running buffer were HBS-EP+(10 mM HEPES, 150 mM NaCl, 3 mM EDTA, 0.05% surfactant P20) (GE Healthcare; BR-1006-69). The flow-through cell was set to 25° C. The sample block was set to 16° C. Both were pretreated with the running buffer. In each cycle, the antibody to be detected was first captured with a Protein A chip, and then a single concentration of CD3ε antigen protein (purchased from Sino Biological, Inc. (China), catalog number: 10977-H08H) was injected. The binding and dissociation processes of the antibody and the antigen protein were recorded, and finally a glycine solution (pH 1.5, GE Healthcare; BR-1003-54) was used to complete chip regeneration. The binding was measured by injecting different concentrations of recombinant human CD3ε-ECD His proteins in a solution for 240 s with a flow rate of 30 μL/min. The concentration started from 200 nM (see the detailed results for the actual concentration in the test) and was diluted at 1:1, making a total of 5 concentrations. The dissociation phase was monitored for up to 600 s and was triggered by switching from sample solution to running buffer. The surface was regenerated by washing with a 10 mM glycine solution (pH 1.5) for 30 s at a flow rate of 30 μL/min. Bulk refractive index difference was corrected by subtracting the response obtained from the goat anti-human Fc surface. Blank injection was also subtracted (=double reference). For calculation of apparent KD and other kinetic parameters, Langmuir 1:1 model was used.

The target of assay [4] is T2, human CD3 on the cell surface (Jurkat …). Briefly: FACS, expanded human T cells. Here is the method: as §1
For assay [5] the target is unchanged. Put plainly: FACS, expanded human T cells. Here is the method: as §1
The source holds these as a separate data set.

For assay [6] the target is unchanged. Briefly: FACS, Jurkat cells. The procedure: as §1
For assay [7], the target named is T1, cynomolgus monkey CD3 on the surface of …. Put plainly: FACS, expanded monkey T cells. The procedure: as §1, with “MOLT4 cells. […]” for “MOLT4 cells.”
In assay [8] the target is T2, human CD3 on the cell surface (Jurkat …). Briefly: cell-based or functional assay. The source holds these as a separate data set.
The target of assay [9] is T4, human CD3ε/δ-His (human, UniProt P07766 23-126; P04234 22-105).
T4 construct: Bought recombinant heterodimer with His tag; also called human CD3ε/δ protein
T4 sequence (P07766 23-126, stated change not applied, form in doubt, chain 1 of 2): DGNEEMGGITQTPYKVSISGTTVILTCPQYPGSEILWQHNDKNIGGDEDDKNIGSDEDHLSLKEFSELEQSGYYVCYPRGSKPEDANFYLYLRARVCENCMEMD
T4 sequence (P04234 22-105, stated change not applied, form in doubt, chain 2 of 2): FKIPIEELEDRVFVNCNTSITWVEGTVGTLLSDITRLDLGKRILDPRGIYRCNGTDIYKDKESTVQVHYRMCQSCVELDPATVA
Briefly: SPR, antibody captured on Protein A chip.

Assay [10] concerns the target T3, recombinant human CD3ε-ECD His protein. Put plainly: SPR, antibody captured on Protein A chip.
A further assay has as its target T5, monkey CD3ε protein (monkey, UniProt Q95LI5 22-117, limits assumed).
T5 sequence (looked up): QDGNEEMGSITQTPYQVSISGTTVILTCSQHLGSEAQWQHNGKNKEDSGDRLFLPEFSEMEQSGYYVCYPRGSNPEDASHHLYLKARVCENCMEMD
Put plainly: ELISA, coated antigen.

Another assay has as its target T6, monkey CD3ε/δ-His (monkey, UniProt Q95LI5 22-117; Q95LI8 22-105).
T6 construct: Bought recombinant heterodimer with His tag
Put plainly: ELISA, coated antigen.

Assay [11] deals with T1, cynomolgus monkey CD3 on the surface of …. Put plainly: FACS, expanded monkey T cells. The source holds these as a separate data set.
In assay [12] the target is T4, human CD3ε/δ-His. Put plainly: ELISA, coated antigen. Here is the method: (§2) To detect the binding activity of the humanized antibodies to CD3 protein, CD3 protein was diluted with PBS to the final concentration of […], then added to a 96-well ELISA plate at 50 μL/well, and the plate was sealed with a plastic film, and incubated overnight at 4° C. On the next day, the plate was washed 2 times with PBS, and a blocking solution [PBS+2% (v/v) BSA] was added for blocking at room temperature for 2 h. The blocking solution was poured off, and the antibody (initial concentration of 100 nM, and gradient dilution at 1:10) or a negative control antibody was added at 50 µl/well. After incubation at 37° C. for 2 h, the plate was washed 3 times with PBS. […] TMB substrate was added at 50 μl/well, and incubated at room temperature for 10 min, and then a stop solution (1.0 N HCl) was added at 50 μl/well. The OD450 nm values were read by an ELISA microplate reader (Multimode Plate Reader, EnSight, purchased from Perkin Elmer).

Assay [13] concerns the target T3, recombinant human CD3ε-ECD His protein. Briefly: ELISA, coated antigen. Here is the method:
as §2

In assay [14] the target is T2, human CD3 on the cell surface (Jurkat …). Briefly: FACS, expanded human T cells. The source holds these as a separate data set.
Assay [15] addresses T4, human CD3ε/δ-His. Briefly: ELISA, coated antigen. Here is the method: as §2
The source holds these as a separate data set.

The target of assay [16] is T3, recombinant human CD3ε-ECD His protein. Briefly: ELISA, coated antigen. Here is the method:
as §2
This is another data set of the same source.

Assay [17] concerns the target T4, human CD3ε/δ-His. Put plainly: ELISA, coated antigen. Here is the method: as §2
The source holds these as a separate data set.

Assay [18] has as its target T3, recombinant human CD3ε-ECD His protein. Briefly: ELISA, coated antigen. Here is the method:
as §2
This is another data set of the same source.

Read-outs that look alike come from different tables or passages of the source.

T3 sequence (P07766 23-126): as the sequence (P07766 23-126, stated change not applied, form in doubt, chain 1 of 2) above
T2 sequence (P07766 23-207, chain 1 of 3): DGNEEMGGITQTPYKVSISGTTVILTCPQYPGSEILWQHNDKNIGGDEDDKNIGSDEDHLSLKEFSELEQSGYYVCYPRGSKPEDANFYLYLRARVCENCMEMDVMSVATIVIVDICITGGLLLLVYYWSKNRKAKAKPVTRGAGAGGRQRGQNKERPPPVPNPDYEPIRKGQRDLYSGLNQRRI
T2 sequence (P04234 22-171, chain 2 of 3): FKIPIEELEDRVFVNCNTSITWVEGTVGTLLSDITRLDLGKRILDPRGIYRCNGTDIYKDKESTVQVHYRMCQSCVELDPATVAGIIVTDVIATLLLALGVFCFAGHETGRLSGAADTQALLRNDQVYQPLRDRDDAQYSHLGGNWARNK
T2 sequence (P09693 23-182, chain 3 of 3): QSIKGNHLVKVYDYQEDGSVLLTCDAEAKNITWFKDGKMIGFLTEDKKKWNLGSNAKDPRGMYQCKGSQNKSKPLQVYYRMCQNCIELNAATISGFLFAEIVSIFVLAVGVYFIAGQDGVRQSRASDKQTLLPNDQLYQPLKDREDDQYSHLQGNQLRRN
T6 sequence (Q95LI8 22-105, stated change not applied, form in doubt, chain 2 of 2, one chain of several): as the sequence (P04234 22-105, stated change not applied, form in doubt, chain 2 of 2) above, with I5V, N15K, I20V, S32T, D33N, I34N, T64A, S74N, V83L counted along it

B1: 8-18.1 human-murine chimeric antibody (antibody, human IgG1, kappa, V domains shown)
VH: QVQLQQSGAELARPGASVKMSCKASGYIFTMNTMHWVKQRPGQGLEWIGYINPYSGYTKYNQIFKDKATLTADKSSSTAYMRLSSLTSEDSAVYYCLRGGEGVWGQGTTLTVSS
VL: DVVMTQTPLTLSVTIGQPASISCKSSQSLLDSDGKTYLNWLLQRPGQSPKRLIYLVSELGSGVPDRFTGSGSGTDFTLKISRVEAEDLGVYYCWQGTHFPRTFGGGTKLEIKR
notes: Human IgG1 chimera
As to B1, the “MFI at antibody concentration 4 nM” value in [1] came out at 16100 MFI. Further, in assay [2], the “EC50 (nM), luciferase reporter, Jurkat-Lucia NFAT cells” value is 11.8 nM and the “Maximum response value (RLU)” value turned out to be 10400 RLU. For the same molecule, in assay [3], the Kd was found to be 0.542 nM, the dissociation rate constant (koff) was found to be 0.000241 s⁻¹ and the kon amounted to 445000 M⁻¹ s⁻¹. Moreover, in assay [4], it took 1.58 nM to reach a half-maximal effect (EC50) and the MFI_Max is 8980 MFI.

B2: 7-35.6 human-murine chimeric antibody (antibody, human IgG1, lambda, V domains shown)
VH: EVQLVESGGGLVQPKGSLKLSCAASGFTFNTYAMNWVRQAPGKGLEWVGRIRSKINNYATYYGDSVKDRFTISRDDSQSMFYLQMNNLKTEDTAMYYCVIHENYGSISWFAYWGQGTLVTVSA
VL: QAVVTQESTLTTSPGETVTLTCRSSTGAVTTSNYANWVQEKPDHLFTGLIGGTNNRAPGVPARFSGSLIGDKAALTITGAQTEDEAIYFCALWYSNHWVFGGGTKLTVLG
notes: Human IgG1 chimera
In [5], B2 displayed a concentration for a half-maximal effect (EC50) of 4.62 nM and an MFI_Max of 3800 MFI. In assay [6], this molecule came in with an EC50 of 3.37 nM and an MFI_Max of 2800 MFI. In assay [7], this molecule registered an EC50 of 2.74 nM. Further, in [3], the Kd was 0.959 nM, the off-rate (koff) came out at 0.000261 s⁻¹ and the kon was 272000 M⁻¹ s⁻¹. Also, in [8], the “EC50 (nM), luciferase reporter, Jurkat-Lucia NFAT cells” value was determined as 11.8 nM and the “Maximum response value (RLU)” value came out at 8570 RLU.

B3: 6-44.5-H1-L2 humanized antibody (antibody, human IgG1, kappa, V domains shown)
VH: EVQLVQSGAEVKKPGSSVKVSCKASGHTFSSHIMHWVRQAPGQGLEWMGYINPNNDRTEYSEKFKGRVTITADKSTSTAYMELSSLRSEDTAVYYCAGEAYYSNSLYAMDYWGQGTTVTVSS
VL: DIVMTQSPDSLAVSLGERATINCKSSQSLFNSRTRKNYLAWYQQKPGQSPKLLIYWASTRESGVPDRFSGSGSGTDFTLTISSLQAEDVAVYYCKQSYYLRTFGGGTKVEIKR
Consider B3, for which the values for the Kd (with human CD3ε/δ-His [9]; in [10]) were 69 nM and 0.669 nM, respectively. Also, the koff in the assay with human CD3ε/δ-His [9] was 0.0339 s⁻¹; in assay [10] it was 0.000311 s⁻¹. Further, the on-rate constant (kon) with human CD3ε/δ-His [9] stood at 491000 M⁻¹ s⁻¹; in assay [10], 466000 M⁻¹ s⁻¹. Besides, the EC50 with monkey CD3ε protein was found to be 0.00947 pM; with monkey CD3ε/δ-His, 0.000225 nM; in assay [11] it was 0.17 nM; in the assay with human CD3ε/δ-His [12], 0.03 nM; in assay [13] it was 0.09 nM; in assay [14], 0.43 nM. For the same molecule, the max-OD450 in the assay with monkey CD3ε protein was 2.84 OD450; with monkey CD3ε/δ-His, 3.07 OD450; in the assay with human CD3ε/δ-His [12] it was 3.05 OD450; in assay [13], 2.7 OD450. For the same molecule, the max_MFI in assay [11] amounted to 24800 MFI; in assay [14] it was 34000 MFI.

B4: 7221G20-hIgG1 (antibody, V domains shown)
VH: EVQLVESGGGLVQPGRSLRLSCAASGFTFDDYSMHWVRQAPGKGLEWVSGISWNSGSIGYADSVKGRFTISRDNAKNSLYLQMNSLRAEDTALYYCAKYGSGYGKFYYYGMDVWGQGTTVTVSS
VL: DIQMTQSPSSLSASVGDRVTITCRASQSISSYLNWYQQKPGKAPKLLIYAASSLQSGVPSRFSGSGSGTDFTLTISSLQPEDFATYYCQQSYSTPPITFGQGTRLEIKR
As to B4, the EC50 in the assay with human CD3ε/δ-His [15] was determined as 23.4 nM; with human CD3ε/δ-His [12], 23.4 nM; with human CD3ε/δ-His [17], 23.4 nM; in [14], 4.72 nM. For the same molecule, the max-OD450 in the assay with human CD3ε/δ-His [15] came out at 1.31 OD450; in assay [16], 0.15 OD450; with human CD3ε/δ-His [12], 1.31 OD450; in assay [13], 0.06 OD450; with human CD3ε/δ-His [17], 1.31 OD450; in [18], 0.05 OD450. Further, the binding result in assay [16] was “no binding (tested: 100 nM (initial concentration))”. The max_MFI in assay [14] is 20900 MFI.
